Assay results as given in the supplement of paper PMC10065799, “High-throughput profiling of sequence recognition by tyrosine kinases and SH2 domains using bacterial peptide display” (eLife, 2023).

Legend:
FGFR1 = FGFR1 (UniProt P11362); assay: phosphorylation enrichment, bacterial display (enrichment ratio); higher = better substrate or ligand; peptides without Tyr show the background
Fer (mouse) = assay: as above
c-Src = assay: as above
Fyn = Fyn (UniProt P06241); assay: as above
EPHB2 = EPHB2 (UniProt P29323); assay: as above
EPHB1 = EPHB1 (UniProt P54762); assay: as above
FGFR3 = FGFR3 (UniProt P22607); assay: as above
AncSZ = assay: as above
Hck = Hck (UniProt P08631); assay: as above
Fes = Fes (UniProt P07332); assay: as above
c-Abl (mouse) = assay: as above
Jak2 = Jak2 (UniProt O60674); assay: as above
MERTK = MERTK (UniProt Q12866); assay: as above
SHP2-C SH2 = assay: SH2 binding enrichment of the phosphorylated peptide, bacterial display (enrichment ratio); higher = better substrate or ligand; peptides without Tyr show the background
c-Src SH2 = assay: as above
Grb2 SH2 = Grb2 SH2 (UniProt P62993); assay: as above
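Wherever SH2 binding enrichment of the phosphorylated peptide, bacterial display is given: peptide library displayed on the E. coli surface as eCPX fusions, selected cells deep-sequenced, score is each peptide's frequency after selection divided by its frequency in the input.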
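Wherever phosphorylation enrichment, bacterial display is given: 11-residue human phosphosite peptides and single-mutation variants displayed on the E. coli surface, counted by deep sequencing, each peptide's frequency after selection divided by its frequency in the unselected input library; frequency after pTyr selection over input frequency; kinase dosed for 20-30% of maximal phosphorylation in three min.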

EPHB2, sequence (P29323 whole entry, looked up): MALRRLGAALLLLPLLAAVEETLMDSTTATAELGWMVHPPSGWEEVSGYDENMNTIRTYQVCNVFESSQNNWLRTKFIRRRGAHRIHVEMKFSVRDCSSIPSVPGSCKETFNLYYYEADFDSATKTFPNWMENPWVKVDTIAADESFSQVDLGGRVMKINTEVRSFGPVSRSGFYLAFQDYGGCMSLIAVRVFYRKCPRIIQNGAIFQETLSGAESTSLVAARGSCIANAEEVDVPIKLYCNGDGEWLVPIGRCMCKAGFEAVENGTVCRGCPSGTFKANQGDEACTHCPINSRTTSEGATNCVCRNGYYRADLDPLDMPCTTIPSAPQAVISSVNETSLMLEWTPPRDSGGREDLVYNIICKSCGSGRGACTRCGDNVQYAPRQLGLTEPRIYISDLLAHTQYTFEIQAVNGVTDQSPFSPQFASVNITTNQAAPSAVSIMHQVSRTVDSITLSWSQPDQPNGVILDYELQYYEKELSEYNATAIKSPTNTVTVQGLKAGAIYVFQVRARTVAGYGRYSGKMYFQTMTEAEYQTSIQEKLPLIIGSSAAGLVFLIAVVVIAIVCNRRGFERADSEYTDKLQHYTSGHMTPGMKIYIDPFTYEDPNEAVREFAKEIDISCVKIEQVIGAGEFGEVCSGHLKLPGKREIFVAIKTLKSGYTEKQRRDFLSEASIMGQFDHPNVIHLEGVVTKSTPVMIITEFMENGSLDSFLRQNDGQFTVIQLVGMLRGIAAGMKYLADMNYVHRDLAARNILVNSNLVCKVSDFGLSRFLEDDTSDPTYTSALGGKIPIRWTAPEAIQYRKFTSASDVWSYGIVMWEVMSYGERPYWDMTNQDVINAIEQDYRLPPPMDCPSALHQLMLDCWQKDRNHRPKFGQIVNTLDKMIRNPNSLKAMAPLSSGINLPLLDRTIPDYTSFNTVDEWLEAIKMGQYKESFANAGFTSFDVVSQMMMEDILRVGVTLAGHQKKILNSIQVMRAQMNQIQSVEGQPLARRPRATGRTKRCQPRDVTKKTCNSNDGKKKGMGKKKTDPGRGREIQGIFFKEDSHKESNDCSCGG
Grb2 SH2, sequence (P62993 whole entry, looked up, the tested form may be a part): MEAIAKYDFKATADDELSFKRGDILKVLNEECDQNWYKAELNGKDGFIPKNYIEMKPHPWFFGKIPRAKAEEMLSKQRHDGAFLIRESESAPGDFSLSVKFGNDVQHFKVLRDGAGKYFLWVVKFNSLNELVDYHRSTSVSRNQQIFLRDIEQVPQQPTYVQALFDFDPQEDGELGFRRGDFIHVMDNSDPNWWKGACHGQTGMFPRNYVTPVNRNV
Fes, sequence (P07332 whole entry, looked up): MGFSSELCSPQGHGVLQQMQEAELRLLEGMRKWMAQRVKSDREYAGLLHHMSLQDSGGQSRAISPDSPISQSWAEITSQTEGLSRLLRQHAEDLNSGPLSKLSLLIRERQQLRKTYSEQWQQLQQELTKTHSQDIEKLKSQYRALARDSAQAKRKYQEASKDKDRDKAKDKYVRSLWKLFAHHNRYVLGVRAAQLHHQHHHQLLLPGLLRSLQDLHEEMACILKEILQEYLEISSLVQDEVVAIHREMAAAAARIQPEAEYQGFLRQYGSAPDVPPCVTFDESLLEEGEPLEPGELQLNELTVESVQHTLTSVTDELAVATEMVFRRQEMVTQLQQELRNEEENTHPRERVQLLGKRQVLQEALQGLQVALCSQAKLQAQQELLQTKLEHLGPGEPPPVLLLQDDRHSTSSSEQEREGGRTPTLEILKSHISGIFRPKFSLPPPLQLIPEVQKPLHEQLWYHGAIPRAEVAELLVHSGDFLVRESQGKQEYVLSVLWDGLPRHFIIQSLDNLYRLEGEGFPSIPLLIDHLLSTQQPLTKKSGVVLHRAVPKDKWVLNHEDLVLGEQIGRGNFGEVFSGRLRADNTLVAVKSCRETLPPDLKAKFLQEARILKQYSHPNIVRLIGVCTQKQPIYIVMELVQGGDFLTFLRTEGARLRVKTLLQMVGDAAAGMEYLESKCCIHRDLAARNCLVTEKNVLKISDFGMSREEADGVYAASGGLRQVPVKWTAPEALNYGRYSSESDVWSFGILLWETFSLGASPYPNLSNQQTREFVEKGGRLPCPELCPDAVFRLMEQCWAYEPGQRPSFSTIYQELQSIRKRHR
Jak2, sequence (O60674 whole entry, looked up): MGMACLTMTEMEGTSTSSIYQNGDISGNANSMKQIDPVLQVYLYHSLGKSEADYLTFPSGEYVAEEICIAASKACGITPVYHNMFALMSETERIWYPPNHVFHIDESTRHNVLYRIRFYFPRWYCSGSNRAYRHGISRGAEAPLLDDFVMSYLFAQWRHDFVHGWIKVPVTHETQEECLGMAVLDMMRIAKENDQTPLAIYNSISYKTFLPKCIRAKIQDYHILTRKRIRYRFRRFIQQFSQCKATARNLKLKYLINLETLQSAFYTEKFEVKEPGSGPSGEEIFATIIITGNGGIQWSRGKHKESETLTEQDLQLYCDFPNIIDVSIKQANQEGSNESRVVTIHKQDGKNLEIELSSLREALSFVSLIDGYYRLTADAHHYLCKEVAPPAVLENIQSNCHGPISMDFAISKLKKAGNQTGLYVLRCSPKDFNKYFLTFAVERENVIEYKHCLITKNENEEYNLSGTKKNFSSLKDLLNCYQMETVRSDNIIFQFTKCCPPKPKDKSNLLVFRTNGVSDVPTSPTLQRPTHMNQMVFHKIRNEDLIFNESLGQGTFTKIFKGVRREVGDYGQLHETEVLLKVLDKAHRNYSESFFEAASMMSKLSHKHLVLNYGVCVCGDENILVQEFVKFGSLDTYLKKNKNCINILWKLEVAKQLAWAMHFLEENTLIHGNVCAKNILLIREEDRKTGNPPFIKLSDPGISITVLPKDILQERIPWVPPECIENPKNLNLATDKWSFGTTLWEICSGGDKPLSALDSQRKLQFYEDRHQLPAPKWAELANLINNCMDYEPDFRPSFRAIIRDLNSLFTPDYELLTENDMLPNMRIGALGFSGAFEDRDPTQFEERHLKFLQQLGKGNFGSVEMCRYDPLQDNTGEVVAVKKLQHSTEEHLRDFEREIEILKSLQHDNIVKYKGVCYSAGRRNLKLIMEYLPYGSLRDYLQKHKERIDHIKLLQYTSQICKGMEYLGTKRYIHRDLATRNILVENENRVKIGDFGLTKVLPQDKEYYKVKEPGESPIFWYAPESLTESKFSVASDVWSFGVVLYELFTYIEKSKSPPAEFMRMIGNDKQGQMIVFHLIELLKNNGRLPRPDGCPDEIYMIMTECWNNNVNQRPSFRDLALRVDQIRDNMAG
EPHB1, sequence (P54762 whole entry, looked up): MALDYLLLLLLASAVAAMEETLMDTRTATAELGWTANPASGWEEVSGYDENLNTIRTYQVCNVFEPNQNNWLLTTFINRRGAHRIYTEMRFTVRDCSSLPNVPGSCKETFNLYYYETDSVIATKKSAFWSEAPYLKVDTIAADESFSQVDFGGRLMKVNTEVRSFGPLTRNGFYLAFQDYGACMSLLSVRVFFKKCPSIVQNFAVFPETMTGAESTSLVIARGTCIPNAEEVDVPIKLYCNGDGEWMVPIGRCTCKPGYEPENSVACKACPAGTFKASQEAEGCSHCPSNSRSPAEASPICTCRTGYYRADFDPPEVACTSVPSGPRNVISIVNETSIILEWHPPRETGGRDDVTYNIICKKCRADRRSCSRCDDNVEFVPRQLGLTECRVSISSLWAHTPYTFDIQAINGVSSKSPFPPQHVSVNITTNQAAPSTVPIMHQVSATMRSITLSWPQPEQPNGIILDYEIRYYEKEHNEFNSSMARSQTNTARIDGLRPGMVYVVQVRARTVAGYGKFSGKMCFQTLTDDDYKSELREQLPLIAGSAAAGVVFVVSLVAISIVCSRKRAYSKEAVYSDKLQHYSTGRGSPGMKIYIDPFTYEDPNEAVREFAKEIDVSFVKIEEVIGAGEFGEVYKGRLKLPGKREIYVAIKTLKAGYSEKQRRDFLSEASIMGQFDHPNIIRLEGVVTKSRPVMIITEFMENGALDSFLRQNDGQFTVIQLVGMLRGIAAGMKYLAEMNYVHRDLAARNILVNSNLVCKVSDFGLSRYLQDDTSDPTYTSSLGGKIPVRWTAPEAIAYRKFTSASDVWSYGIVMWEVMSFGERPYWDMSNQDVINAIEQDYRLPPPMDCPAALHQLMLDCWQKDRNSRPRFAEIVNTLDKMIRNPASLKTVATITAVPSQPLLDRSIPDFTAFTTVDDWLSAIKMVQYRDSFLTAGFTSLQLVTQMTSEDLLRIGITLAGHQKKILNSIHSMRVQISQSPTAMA
FGFR1, sequence (P11362 whole entry, looked up): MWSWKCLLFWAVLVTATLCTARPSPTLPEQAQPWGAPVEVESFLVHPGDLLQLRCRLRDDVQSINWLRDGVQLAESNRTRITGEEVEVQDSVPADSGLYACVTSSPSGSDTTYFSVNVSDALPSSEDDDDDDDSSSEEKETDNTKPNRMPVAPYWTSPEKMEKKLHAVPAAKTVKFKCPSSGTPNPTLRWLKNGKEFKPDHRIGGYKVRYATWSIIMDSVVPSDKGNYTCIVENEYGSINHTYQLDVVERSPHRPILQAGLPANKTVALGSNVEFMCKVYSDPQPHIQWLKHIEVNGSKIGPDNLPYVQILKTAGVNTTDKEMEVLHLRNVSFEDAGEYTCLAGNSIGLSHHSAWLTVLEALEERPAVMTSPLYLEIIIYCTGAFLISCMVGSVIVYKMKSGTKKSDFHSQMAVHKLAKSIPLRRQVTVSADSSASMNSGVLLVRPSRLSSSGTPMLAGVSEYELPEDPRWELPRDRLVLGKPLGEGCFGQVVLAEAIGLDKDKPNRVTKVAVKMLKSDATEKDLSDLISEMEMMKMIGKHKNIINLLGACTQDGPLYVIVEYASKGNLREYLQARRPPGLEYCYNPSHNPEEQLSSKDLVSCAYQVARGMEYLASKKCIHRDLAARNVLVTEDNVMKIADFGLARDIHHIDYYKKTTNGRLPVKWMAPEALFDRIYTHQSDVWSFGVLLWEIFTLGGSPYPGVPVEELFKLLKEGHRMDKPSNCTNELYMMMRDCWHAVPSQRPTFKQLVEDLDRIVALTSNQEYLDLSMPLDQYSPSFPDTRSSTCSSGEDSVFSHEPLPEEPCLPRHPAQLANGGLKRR

| Sequence | phosphorylation enrichment (FGFR1) | phosphorylation enrichment (Fer (mouse)) | phosphorylation enrichment (c-Src) | phosphorylation enrichment (Fyn) | phosphorylation enrichment (EPHB2) | phosphorylation enrichment (EPHB1) | phosphorylation enrichment (FGFR3) | phosphorylation enrichment (AncSZ) | phosphorylation enrichment (Hck) | phosphorylation enrichment (Fes) | phosphorylation enrichment (c-Abl (mouse)) | phosphorylation enrichment (Jak2) | phosphorylation enrichment (MERTK) | SH2 binding enrichment (SHP2-C SH2) | SH2 binding enrichment (c-Src SH2) | SH2 binding enrichment (Grb2 SH2) |
| --- | --- | --- | --- | --- | --- | --- | --- | --- | --- | --- | --- | --- | --- | --- | --- | --- |
| KSMSVYCTPNK [ATP2A2_Y497] | 0.473 | 0.509 | 0.455 | 0.699 | 0.702 | 0.696 | 0.632 | 1.13 | 1 | 0.94 | 1.38 | 0.581 | 0.653 | 0.686 | 0.948 | 1.08 |
| VYYYSYLLKNH [PTEN_Y180] | 4.67 | 0.82 | 1.63 | 1.12 | 1.07 | 1.72 | 3.68 | 1.48 | 1.74 | 1.33 | 2.84 | 2.14 | 3.89 | 0.941 | 0.847 | 0.965 |
| CSRRFYQLTKL [AR_Y858] | 0.455 | 0.468 | 0.527 | 0.462 | 0.548 | 0.407 | 0.528 | 0.79 | 0.507 | 0.718 | 0.508 | 0.698 | 0.448 | 0.488 | 0.406 | 0.663 |
| SVVAPYEPPEV [TP53_Y220_V218A] | 0.528 | 0.578 | 0.672 | 0.67 | 0.617 | 0.629 | 0.753 | 1.34 | 0.624 | 1.48 | 1.08 | 1.1 | 0.629 | 0.59 | 0.762 | 0.903 |
| GKSHIYFWTLD [EML2_Y230_E235D] | 1.07 | 0.508 | 0.572 | 0.514 | 0.523 | 0.622 | 1.1 | 1.17 | 0.521 | 1.21 | 0.847 | 1.11 | 0.778 | 0.712 | 0.387 | 0.703 |
| HKLSYYEYDFE [BTK_Y40] | 7.25 | 0.64 | 2.48 | 2.13 | 1.38 | 2.02 | 4.03 | 1.86 | 0.952 | 2.13 | 1.26 | 1.6 | 3.67 | 0.941 | 3.4 | 1.05 |
| SSQHRYSTPHA [RAF1_Y232] | 0.364 | 0.365 | 0.433 | 0.357 | 0.354 | 0.479 | 0.344 | 0.682 | 0.293 | 0.53 | 0.387 | 0.403 | 0.437 | 0.898 | 2.11 | 0.714 |
| SLHPGYNFRFA [P2RX7_Y291_Y288H_YF] | 0.364 | 0.434 | 0.385 | 0.378 | 0.417 | 0.573 | 0.524 | 0.852 | 0.432 | 0.904 | 0.57 | 0.765 | 0.394 | 0.61 | 0.703 | 0.89 |
| VGTKRYMAPEV [ACVRL1_Y375] | 0.413 | 0.395 | 0.373 | 0.361 | 0.428 | 0.351 | 0.446 | 0.611 | 0.407 | 0.61 | 0.532 | 0.637 | 0.389 | 0.616 | 0.511 | 0.804 |
| ERWLKYFPIEQ [HS3ST5_Y244] | 0.452 | 0.566 | 0.288 | 0.361 | 0.566 | 0.401 | 0.798 | 1.05 | 0.436 | 1.27 | 0.624 | 0.855 | 0.451 | 1.05 | 0.729 | 1.25 |
| QKKPCYEIRWK [PDGFRB_Y562_R561C] | 0.914 | 1.02 | 0.361 | 0.983 | 1.48 | 0.958 | 2.08 | 1.43 | 1.02 | 1.03 | 0.652 | 0.653 | 0.67 | 2.56 | 1.73 | 1.55 |
| LHVGFYESDVM [A2M_Y708_R704H] | 0.889 | 1.9 | 0.676 | 0.691 | 1.14 | 1.41 | 1.21 | 1.18 | 0.743 | 1.58 | 0.761 | 1.34 | 1.15 | 0.721 | 4.23 | 0.95 |
| AGLVQYYMEHH [PTPN11_Y80_E76G] | 0.608 | 0.499 | 0.468 | 0.545 | 0.777 | 0.973 | 0.73 | 0.677 | 0.754 | 0.939 | 0.448 | 0.607 | 0.49 | 1.25 | 1.14 | 1.35 |
| RVILRYVNPGN [LAMA3_Y791_T796N] | 0.614 | 0.609 | 0.75 | 0.617 | 0.711 | 0.836 | 1.12 | 1.47 | 0.775 | 2.02 | 1.61 | 1.79 | 0.709 | 0.873 | 0.944 | 1.17 |
| TFLRTYTDAMQ [TSPAN7_Y124] | 0.438 | 0.379 | 0.413 | 0.396 | 0.488 | 0.51 | 0.548 | 0.791 | 0.506 | 0.813 | 0.552 | 0.726 | 0.37 | 0.864 | 0.846 | 0.761 |
| INSLKYAFNVS [EIF2B5_Y583_I587V_YF] | 0.44 | 0.452 | 0.464 | 0.478 | 0.43 | 0.443 | 0.584 | 0.77 | 0.51 | 0.85 | 0.593 | 0.771 | 0.447 | 0.352 | 0.379 | 0.705 |
